Legend:
HLH-2;HLH-3 = HLH-2;HLH-3 (Caenorhabditis elegans;Caenorhabditis …, UniProt G5EEG9;Q22717 1-399;1-170, |); experiment: EMSA; co-translated in reticulocyte lysate; poly(dI-dC); EMSA with poly(dI-dC) (37 ng/ug as printed); 5% native PAGE, 100 V, 1 h, room temperature, 45 mM Tris, 45 mM boric acid, 1 mM EDTA pH 8; binding buffer not given in the material; settings: protein: ivt;ivt; tags: ;His; copies: 1;1; as annealed 5' overhangs of 2 nt (TG) on both strands; end labelled with Klenow, which may fill them in
HLH-2;HLH-6 = HLH-2;HLH-6 (Caenorhabditis elegans;Caenorhabditis …, UniProt G5EEG9;Q10007 1-399;1-268, |); experiment: EMSA; reticulocyte lysate; poly(dI-dC); no shift though both proteins expressed; EMSA with poly(dI-dC) (37 ng/ug as printed); 5% native PAGE, 100 V, 1 h, room temperature, 45 mM Tris, 45 mM boric acid, 1 mM EDTA pH 8; binding buffer not given in the material; settings: protein: ivt;ivt; tags: ;; copies: 1;1; as annealed 5' overhangs of 2 nt (TG) on both strands; end labelled with Klenow, which may fill them in
Sequence of HLH-2;HLH-6 (G5EEG9 whole entry, chain 1 of 2): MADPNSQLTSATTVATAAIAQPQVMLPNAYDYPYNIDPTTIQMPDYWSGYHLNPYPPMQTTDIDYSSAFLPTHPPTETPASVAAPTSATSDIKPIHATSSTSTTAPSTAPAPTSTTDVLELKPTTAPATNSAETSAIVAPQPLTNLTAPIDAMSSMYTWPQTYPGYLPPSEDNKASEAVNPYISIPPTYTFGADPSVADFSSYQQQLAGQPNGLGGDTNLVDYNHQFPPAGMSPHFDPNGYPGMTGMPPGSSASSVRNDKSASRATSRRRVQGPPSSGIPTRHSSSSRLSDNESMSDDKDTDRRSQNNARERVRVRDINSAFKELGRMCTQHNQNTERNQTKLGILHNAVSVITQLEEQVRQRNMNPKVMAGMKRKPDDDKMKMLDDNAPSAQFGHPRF
Sequence of HLH-2;HLH-6 (Q10007 whole entry, chain 2 of 2): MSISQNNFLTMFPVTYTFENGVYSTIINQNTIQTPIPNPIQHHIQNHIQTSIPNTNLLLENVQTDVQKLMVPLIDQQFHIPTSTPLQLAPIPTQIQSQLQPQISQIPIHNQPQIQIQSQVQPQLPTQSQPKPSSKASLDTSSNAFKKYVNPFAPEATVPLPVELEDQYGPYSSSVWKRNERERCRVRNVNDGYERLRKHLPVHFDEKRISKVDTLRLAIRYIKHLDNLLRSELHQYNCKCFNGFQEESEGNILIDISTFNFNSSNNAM

Sequence of HLH-2;HLH-3 (G5EEG9 whole entry, chain 1 of 2): as the sequence (G5EEG9 whole entry, chain 1 of 2) above
Sequence of HLH-2;HLH-3 (Q22717 whole entry, chain 2 of 2): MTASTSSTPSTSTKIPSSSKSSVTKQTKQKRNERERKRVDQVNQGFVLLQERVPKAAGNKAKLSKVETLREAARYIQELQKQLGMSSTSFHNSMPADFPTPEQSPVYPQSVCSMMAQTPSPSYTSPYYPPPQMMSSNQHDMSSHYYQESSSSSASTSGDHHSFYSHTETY

B1: phat-3 PGM1 probe (oGD137/oGD138) (dsDNA)
DNA 1: TGCAAACTTGATGCACCTGTTCAAATGTATGCCC
DNA 2: TGGGGCATACATTTGAACAGGTGCATCAAGTTTG
HLH-2;HLH-3
  binding result: binds
HLH-2;HLH-6
  binding result: no binding

— PMC2563036, “The HLH-6 Transcription Factor Regulates C. elegans Pharyngeal Gland Development and Function”
